From patent publication US20200087400A1 (EUREKA THERAPEUTICS, published 2020)

Assays:
[1] = target: T1, HLA-A*02:01 on T2 cells with no peptide loaded (human); test: flow cytometry, phage on T2 cells, anti-M13 + R-PE anti-mouse IgG
T1 construct: TAP-deficient T2 cells, no peptide loaded from outside; also called T2 cells without peptide loading
Experimental: (§1) Individual phage clones from enriched phage display panning pools against PSA146/HLA-A*02:01 complex were incubated in the coated plates. Binding of the phage clones was detected by HRP-conjugated anti-M13 antibodies and developed using HRP substrate. The absorbance was read at 450 nm. […] Then, unique antibody clones were identified through DNA sequencing of ELISA-positive clones. […] T2 cells loaded with different peptides and β2M were first stained with purified scFv phage clones, followed by staining with a mouse anti-M13 mAb, and finally R-PE conjugated horse anti-mouse IgG from Vector Labs. Each step of the staining was performed for between 30-60 minutes on ice and the cells were washed twice between stainings. All 16 clones recognized PSA146-loaded T2 cells specifically. FIG. 3 provides examples of PSA146/HLA-A*02:01 specific phage clone binding to peptide-loaded T2 cells through FACS.

Bio-P19 member A2E-8 = target: T2, Bio-P19 member A2E-8 (chain 2 (heavy): C-terminal BirA substrate peptide, biotinylated there by BirA; tag letters not given, left out); test: phage ELISA, streptavidin plate, anti-M13-HRP
T2 construct: also called biotinylated control peptide A2E-8/HLA-A*02:01 monomer; not shown: BirA substrate peptide (BSP) tag at the C-terminus of the heavy chain
Experimental: as §1

Bio-P19 member A2E-19 = target: T3, Bio-P19 member A2E-19 (chain 2 carries a C-terminal BirA substrate peptide (BSP), enzymatically biotinylated; the BSP letters are not given in the patent and are left out); test: phage ELISA, streptavidin plate, anti-M13-HRP
T3 construct: also called biotinylated control peptide A2E-19/HLA-A*02:01 monomer
Experimental: as §1

Bio-P19 member A2E-10 = target: T4, Bio-P19 member A2E-10 (chain 2: C-terminal BirA substrate peptide (BSP), enzymatically biotinylated; its letters are not printed in the patent and it is left out); test: phage ELISA, streptavidin plate, anti-M13-HRP
T4 construct: also called biotinylated control peptide A2E-10/HLA-A*02:01 monomer
Experimental: as §1

Bio-P19 member A2E-16 = target: T5, Bio-P19 member A2E-16 (chain 2: C-terminal BirA substrate peptide (BSP), enzymatically biotinylated; its letters are not printed in the patent and it is left out); test: phage ELISA, streptavidin plate, anti-M13-HRP
T5 construct: also called biotinylated control peptide A2E-16/HLA-A*02:01 monomer
Experimental: as §1

Bio-P19 member A2E-6 = target: T6, Bio-P19 member A2E-6 (chain 2 carries a C-terminal BirA substrate peptide (BSP), enzymatically biotinylated; the BSP letters are not given in the patent and are left out); test: phage ELISA, streptavidin plate, anti-M13-HRP
T6 construct: also called biotinylated control peptide A2E-6/HLA-A*02:01 monomer
Experimental: as §1

Bio-P19 member A2E-9 = target: T7, Bio-P19 member A2E-9 (chain 2 (heavy): C-terminal BirA substrate peptide, biotinylated there by BirA; tag letters not given, left out); test: phage ELISA, streptavidin plate, anti-M13-HRP
T7 construct: also called biotinylated control peptide A2E-9/HLA-A*02:01 monomer; not shown: BirA substrate peptide (BSP) tag at the C-terminus of the heavy chain
Experimental: as §1

Bio-P19 member A2E-4 = target: T8, Bio-P19 member A2E-4 (chain 2 carries a C-terminal BirA substrate peptide (BSP), enzymatically biotinylated; the BSP letters are not given in the patent and are left out); test: phage ELISA, streptavidin plate, anti-M13-HRP
T8 construct: also called biotinylated control peptide A2E-4/HLA-A*02:01 monomer
Experimental: as §1

Bio-P19 member A2E-11 = target: T9, Bio-P19 member A2E-11 (chain 2: C-terminal BirA substrate peptide (BSP), enzymatically biotinylated; its letters are not printed in the patent and it is left out); test: phage ELISA, streptavidin plate, anti-M13-HRP
T9 construct: also called biotinylated control peptide A2E-11/HLA-A*02:01 monomer
Experimental: as §1

Bio-P19 member A2E-14 = target: T10, Bio-P19 member A2E-14 (chain 2: C-terminal BirA substrate peptide (BSP), enzymatically biotinylated; its letters are not printed in the patent and it is left out); test: phage ELISA, streptavidin plate, anti-M13-HRP
T10 construct: also called biotinylated control peptide A2E-14/HLA-A*02:01 monomer
Experimental: as §1

Bio-P19 member A2E-5 = target: T11, Bio-P19 member A2E-5 (chain 2 carries a C-terminal BirA substrate peptide (BSP), enzymatically biotinylated; the BSP letters are not given in the patent and are left out); test: phage ELISA, streptavidin plate, anti-M13-HRP
T11 construct: also called biotinylated control peptide A2E-5/HLA-A*02:01 monomer
Experimental: as §1

Bio-P19 member A2E-17 = target: T12, Bio-P19 member A2E-17 (chain 2: C-terminal BirA substrate peptide (BSP), enzymatically biotinylated; its letters are not printed in the patent and it is left out); test: phage ELISA, streptavidin plate, anti-M13-HRP
T12 construct: also called biotinylated control peptide A2E-17/HLA-A*02:01 monomer
Experimental: as §1

Bio-P19 member A2E-15 = target: T13, Bio-P19 member A2E-15 (chain 2: C-terminal BirA substrate peptide (BSP), enzymatically biotinylated; its letters are not printed in the patent and it is left out); test: phage ELISA, streptavidin plate, anti-M13-HRP
T13 construct: also called biotinylated control peptide A2E-15/HLA-A*02:01 monomer
Experimental: as §1

Bio-P19 member A2E-7 = target: T14, Bio-P19 member A2E-7 (chain 2 (heavy): C-terminal BirA substrate peptide, biotinylated there by BirA; tag letters not given, left out); test: phage ELISA, streptavidin plate, anti-M13-HRP
T14 construct: also called biotinylated control peptide A2E-7/HLA-A*02:01 monomer; not shown: BirA substrate peptide (BSP) tag at the C-terminus of the heavy chain
Experimental: as §1

Bio-P19 member A2E-21 = target: T15, Bio-P19 member A2E-21 (chain 2 carries a C-terminal BirA substrate peptide (BSP), enzymatically biotinylated; the BSP letters are not given in the patent and are left out); test: phage ELISA, streptavidin plate, anti-M13-HRP
T15 construct: also called biotinylated control peptide A2E-21/HLA-A*02:01 monomer
Experimental: as §1

Bio-P19 member A2E-1 = target: T16, Bio-P19 member A2E-1 (chain 2: C-terminal BirA substrate peptide (BSP), enzymatically biotinylated; its letters are not printed in the patent and it is left out); test: phage ELISA, streptavidin plate, anti-M13-HRP
T16 construct: also called biotinylated control peptide A2E-1/HLA-A*02:01 monomer
Experimental: as §1

Bio-P19 member A2E-13 = target: T17, Bio-P19 member A2E-13 (chain 2: C-terminal BirA substrate peptide (BSP), enzymatically biotinylated; its letters are not printed in the patent and it is left out); test: phage ELISA, streptavidin plate, anti-M13-HRP
T17 construct: also called biotinylated control peptide A2E-13/HLA-A*02:01 monomer
Experimental: as §1

Measured: binding result

B1: PSA146/HLA-A*02:01-specific scFv phage clone #9 (scFv, V domains shown)
VH: QVQLVQSGAEVKKPGASVKVSCKASGYTFTSYGISWVRQAPGQGLEWMGWISAYNGNTNYAQKLQGRVTMTTDTSTSTAYMELRSLRSDDTAVYYCARSSQYYVWDSWGQGTLVTVSS
VL: QSVVTQPPSVSGAPGQRVTISCTGSSSNFGAGYDVHWYQQLPGTAPKLLIYGNSNRPSGVPDRFSGSKSGTSASLAITGLQAEDEADYYCQSYDSSLSGWVFGGGTKLTVLG
no binding: all assays above

B2: PSA146/HLA-A*02:01-specific scFv phage clone #10 (scFv, V domains shown)
VH: QVQLVQSGAEVKKPGSSVKVSCKASGGTFSSYAISWVRQAPGQGLEWMGWINPNSGGTNYAQKFQGRVTMTRDTSISTAYMELSRLRSDDTAVYYCARWSYYYFQQFWSLDGWGQGTLVTVSS
VL: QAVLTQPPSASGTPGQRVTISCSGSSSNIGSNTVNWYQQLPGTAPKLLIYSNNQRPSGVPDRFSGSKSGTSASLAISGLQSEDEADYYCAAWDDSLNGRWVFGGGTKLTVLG
no binding: all assays above

B3: PSA146/HLA-A*02:01-specific scFv phage clone #12 (scFv, V domains shown)
VH: QMQLVQSGSEVKKPGASVKVSCKASGYTFTSYGISWVRQAPGQGLEWMGWISAYNGNTDYVQKLQGRVTMTTDTSTNTAYMELGSLGSDDTAVYYCARTNYNKYDIWGQGTLVTVSS
VL: QSVLTQPPSVSGAPGQRVTISCTGSSSNIGAGYDVHWYQQLPGTAPKLLIYGNSNRPSGVPDRFSGSKSGTSASLAITGLQAEDEADYYCQSYDSSLSEVFGTGTKVTVLG
no binding: all assays above

B4: PSA146/HLA-A*02:01-specific scFv phage clone #13 (scFv, V domains shown)
VH: QVQLVQSGAEVKKPGASVKVSCKASGYTFTSYYMHWVRQAPGQGLEWMGGFDPEDGETIYAQKFQGRVTMTEDTSTDTAYMGLSSLRSEDTAVYYCARYSYDYWGQGTLVTVSS
VL: QAVVTQEPSLTVSPGGTVTLTCASSTGAVTSGYYPNWFQQKPGQAPRALIYSTSNKHSWTPARFSGSLLGGKAALTLSGVQPEDEAEYYCLLYYGGAYVFGTGTKVTVLG
no binding: all assays above

B5: PSA146/HLA-A*02:01-specific scFv phage clone #14 (scFv, V domains shown)
VH: EVQLVQSGAEVKKPGASVKVSCKASGYTFTGYFMHWVRQAPGQGLEWMGGFDPEDGETIYAQKFQGRVTMTEDTSTDTAYMELSSLRSEDTAVYYCARYSYDLWGQGTLVTVSS
VL: QTVVTQEPSLTVSPGGTVTLTCASSTGAVTSGYYPNWFQQKPGQAPRALIYSTSNKHSWTPARFSGSLLGGKAALTLSGVQPEDEAEYYCLLYYGGAQWVFGGGTKLTVLG
no binding: all assays above
